US20090203538A1 (INSTITUTE FOR ANTIBODIES, published 2009)
Substitutions are numbered along the chain they refer to.

B1: 083-131 antibody (antibody, V domains shown)
VH: EVQLVESGGGVVQPGRSLRLSCAASGFTFDDYAMHWVRQAPGKGLEWVSGISWNSGSIGYADSVKGRFTISRDNAKNSLYLQMNSLRAEDTAVYYCATEEWWRFDLWGRGTLVTVSR
VL: QSALTQPPSASGSPGQSVTISCTGTSSDVDDYNYVSWYQQHPGKAPKLMIYEVTKRPSGVPDRFSGSKSGNTASLTISGLQAEDEADYYCSSYVGSDNRVFGTGTKVTVPG
notes: Clone of the scFv-CL-cp3 phage library
B2: 045-134 antibody (antibody, V domains shown)
VH: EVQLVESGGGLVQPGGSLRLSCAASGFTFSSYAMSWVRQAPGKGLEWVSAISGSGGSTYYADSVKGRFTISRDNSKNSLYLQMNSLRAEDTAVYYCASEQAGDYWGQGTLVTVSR
VL: QSVLTQPPSASGTPGQRVTISCSGSSSNIGSNYVYWYQQLPGTAPKLLIYRNNQRPSGVPDRFAGSKSGTSATLGITGLQTGDEADYYCGTWDSSLSAGVFGGGTKLTVLG
notes: as for B1
B3: 029-143 antibody (antibody, V domains shown)
VH: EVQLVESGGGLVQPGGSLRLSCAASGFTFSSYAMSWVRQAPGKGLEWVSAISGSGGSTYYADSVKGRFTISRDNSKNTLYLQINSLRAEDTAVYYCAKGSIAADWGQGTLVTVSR
VL: SSELTQDPAVSVALGQTVRITCQGDSLRSYYASWYQQKPGQAPVLVIYGKNNRPSGIPDRFSGSSSGNTASLTITGAQAEDEADYYCNSRDSSGNVVFGGGTKLTVLG
notes: as for B1
B4: 084-103 antibody (antibody, V domains shown)
VH: QVQLVQSGAEVKKPGSSVKVSCKASGGTFSSYAISWVRQAPGQGLEWMGWMNPNSGNTGYAQKFQGRVTMTRNTSISTAYMELSSLRSEDTAVYYCARDVGIGVFDYWGQGTLVTVSR
VL: SYVLTQPPSVSVAPGKTARITCGGNNIGSKSVHWYQQKPGQAPVLVIYYDSDRPSGIPERFSGSNSGNTATLTISRVEAGDEADYYCQVWDSSSDHVVFGGGTKLTVLG
notes: as for B1
B5: 062-101 antibody (antibody, V domains shown)
VH: QVQLVQSGAEVKKPGASVKVSCKASGYTFTSYYMHWVRQAPGQGLEWMGIINPSGGSTSYAQKFQGRVTMTRDTSTSTVYMELSSLRSEDTAVYYCARELSAATAFDIWGQGTMVTVSR
VL: ETTLTQSPFSVSASVGDRVTITCRASQYISRWLAWYQQRPGKAPKLLIYAAASLQSGVPSRFSGSGSGTDFTLTISSLQPEDFATYYCQQANSFPVTFGQGTRLEIK
notes: as for B1
B6: 062-109 antibody (antibody, V domains shown)
VH: QVQLVQSGAEVKKPGASVKVSCKASGYTFTSYGISWVRQAPGQGLEWMGWISAYNGNTNYAQKLQGRVTMTTDTSTSTAYMELRSLRSDDTAVYYCARVGYYYYYGMDVWGQGTTVTVSR
VL: QSALTQPASVSGSPGQSITISCTGTSSDVGSYNLVSWYQQHPGKAPKLMIYEGSKRPSGVSNRFSGSKSGNTASLTISGLQAEDEADYYCSSYTSSSTWVFGGGTKLTVLG
B7: 029-067 antibody (antibody, V domains shown)
VH: QVQLQQSGAEVKKPGASVKVSCKASGYTFTTYYMHWVRQAPGQGLEWMGIINPSGENTNYAQKFQGRVTMTRDTSTTTVYMELSSLRSEDTAVYYCARSFIGTRGGGLDVWGQGTTVTVSR
VL: QSVLTQPPSVSGAPGQRVNISCAGSSSNIGAGYDVHWYQQIPGTAPKLLMYGNSNRPSGVPDRFSGSKSGASASLAITRLQAEDEADYYCQSYDSSLSGSRVFGTGTKVTVLG
notes: as for B1
B8: 086-032 antibody (antibody, V domains shown)
VH: QVQLVQSGSEVKKPGASVKVSCKTSGYIFTDYYMHWVRQAPGKGLEWMGWINPNSGGTYYAQKFHGRVTMTSDTSISTAYMELSSLRSDDTAIYYCAREDYDILTGYYPASGHGDYWGQGTLVTVSR
VL: QAVVTQEPSLTVSPGGTVTLTCASSTGAVTSGFLANWFQQKPGQTPRSLIYKTSNKHPWTPARFSGSLLGGKAALTLSGVQPEDEADYYCLLLSGGAWVFGGGTKLSVLG
notes: as for B1
B9: 086-138 antibody (antibody, V domains shown)
VH: B8 VH with Y107F
VL: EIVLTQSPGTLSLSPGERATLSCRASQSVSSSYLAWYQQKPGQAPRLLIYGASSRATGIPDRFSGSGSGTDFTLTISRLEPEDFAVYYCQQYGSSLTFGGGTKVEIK
notes: as for B1
B10: 015-143 antibody (antibody, V domains shown)
VH: QVQLVQSGAEVKKPGASVKVSCKASGYTFTSYGISWVRQAPGQGLEWMGWISAYNGNTNYAQKLQGRVTMTTDTSTSTAYMELRSLRSDDTAVYYCARAFRDWGSLRDYWGQGTLVTVSR
VL: QSVLTQPPSVSAAPGQKVTISCSGSSSNIGNNYVSWYQQLPGTAPKLLIYDNNKRPSGIPDRFSGSKSGTSATLGITGLQTGDEADYYCGTWDSSLSAVVFGGGTKLTVLG
notes: as for B1
B11: 053-216 antibody (antibody, V domains shown)
VH: EVQLVESGGGLIRPGGSLRLSCTASGFTFSSYTMNWVRQAPGKGLEWLSYISGGSGTKFYADSVKGRFTVSRDNAKNSLYLEMNSLRPEDTAVYYCALVSYSSPGFDYWGQGTLVTVSS
VL: SYELTQPPSVSVSPGQTASITCSGDKLGDKYVYWYQQKPGQSPILLIFQDSERPSGIPERFSGSNSGNTATLTISGTQAMDEADYYCQAWDSSAAVFGGGTKLTVLG
notes: as for B1
B12: 015-102 antibody (antibody, V domains shown)
VH: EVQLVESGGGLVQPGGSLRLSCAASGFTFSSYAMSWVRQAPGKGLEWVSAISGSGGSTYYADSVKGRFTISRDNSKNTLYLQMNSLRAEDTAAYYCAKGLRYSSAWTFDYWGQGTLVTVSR
VL: QSALTQPASVSGSPGQSITISCTGTSSDVGGYNYVSWYQQHPGKAPKLMIYDVSNRPSGVSNRFSGSKSGNTASLTISGLQAEDEADYYCSSYTSSSTPVVFGGGTKLTVLG
notes: as for B1
B13: 015-136 antibody (antibody, V domains shown)
VH: QVQLVQSGSELKKPGASVKVSCKASGYIFTRYGINWVRQAPGQGLEWMGWINTNTGNPTYAQGFTGRVVFSLDTSVSTAYLQISSLKAEDTAMYYCAISSGFGYYFDYWGQGTLVTVSR
VL: DIQMTQSPSSVSASVGDRVTITCRASQSISRWLAWYQQKPGKAPKFLIYAGSSLQSGVPSRFSGSGSGTDFTLTISSLQPEDFATYYCQQTNSFPLTFGGGTKVEIK
notes: as for B1
B14: 015-044 antibody (antibody, V domains shown)
VH: QVQLQESGPGLVKPSETLSLTCTVSGGSISSSSYYWGWIRQPPGKGLEWIGSIYYSGSTYYNPSLKSRVTISVDTSKNQFSLKLSSVTAADTAVYYCAMRAYGSGSYDYWGQGTLVTVSR
VL: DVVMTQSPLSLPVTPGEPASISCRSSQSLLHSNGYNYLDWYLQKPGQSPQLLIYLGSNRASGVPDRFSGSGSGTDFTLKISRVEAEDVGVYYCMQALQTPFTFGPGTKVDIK
notes: as for B1
B15: 039-016 antibody (antibody, V domains shown)
VH: EVQLVESGGNLVQPGGSLRLSCAASGFTFSRYWMTWVRQAPGKGLEWISSVSSSGSTIYYADSVKGRFTISRDNAKNSLYLQMNSLRVEDTAVYYCARDYWPGWYFDLWGRGTLVTVSR
VL: QAVLTQPSSLSASPGASASLTCTFRSDISVGSYRIYWYQQKPGSPPQFLLKYTSDSDKQQGSGVPSRFSGSKDVSANAGILLISGLQSEDEADYYCMTWHNTASVFGGGTKLAVLG
notes: as for B1
B16: 075-110 antibody (antibody, V domains shown)
VH: B15 VH with N10G, A23S, R31N, V51I
VL: B15 VL
notes: as for B1
B17: 075-024 antibody (antibody, V domains shown)
VH: QVQLVQSGAEVKKPGASVKVSCKASGYTFTSYGISWVRQAPGQGLEWMGWISAYNGNTNYAQKLQGRVTMTTDTSTSTAYMELRSLRSDDTAVYYCARGGAFDIWGQGTTVTVSR
VL: QSVLTQPPSVSGAPGQRVTISCTGSSSNIGAGYHVYWYQQLPGKAPKLLIYVNSNRPSGVPDRFSGSKSGTSASLAITGLQADDEADYYCQSYDSSLSGRVFGGGTKLTVLG
notes: as for B1
B18: 015-209 antibody (antibody, V domains shown)
VH: EVQLVESGAEVKKPGESLKISCKGSGYSFTSYWIGWVRQMPGKGLEWMGIIYPGDSDTRYSPSFQGQVTISADKSISTAYLQWSSLKASDTAMYYCARLAVGAYQYYFDYWGQGTLVTVSR
VL: QTVVTQEPSFSVSPGGTVTLTCGLSSGSVSTSYYPSWYQQTPGQAPRTLIYSTNTRSSGVPDRFSGSILGNKAALTITGAQADDESDYYCVLYMGSGISVFGGGTKLTVLG
notes: as for B1
B19: 086-035 antibody (antibody, V domains shown)
VH: QVQLVQSGAEVKKPGESLKISCEGSGYTFTSYWIGWVRQMPGKDLEWMGIIYPGDSDTRYSPSFQGQVTISVDKSISTAYLQWSSLKASDTAMYYCARHDVVDGYNTGMDVWGQGTTVTVSR
VL: B18 VL with S11T, Y51S, K72R, S99W
notes: as for B1
B20: 086-182 antibody (antibody, V domains shown)
VH: QVQLVQSGAEVKKPGESLKISCKGSGYSFTSYWIGWVRQMPGKGLEWMGIIYPGDSDTRYSPSFQGQVTISADKSISTAYLQWSSLKASDTAMYYCARHGMTSGYVAHNDYWGQGTLVTVSR
VL: B18 VL with S99W
notes: as for B1
B21: 086-036 antibody (antibody, V domains shown)
VH: QVQLVQSGAEVKKPGESLKISCKGSGYSFTSYWIGWVRQMPGKGLEWMGIIYPGDSDARYSPSFQGQVTISADKSISTAYLQWSSLKASDTAMYYCARLTGSSYYDSSGYSSYGMDVWGQGTTVTVSR
VL: B18 VL with Y38F, K106Q
notes: as for B1
B22: 086-061 antibody (antibody, V domains shown)
VH: QVQLVQSGAEVKKPGESLKISCKGSGYSFTSYWIGWVRQMPGKGLEWMGIIYPGDSDTRYSPSFQGQVTISADKSISTAYLQWSSLKASDTAMYYCARHNSNYYYYYMDVWGKGTLVTVSR
VL: B18 VL
notes: as for B1

These binders were tested against T1, ALCAM (Activated leukocyte cell adhesion molecule) (Homo sapiens (Human), UniProt Q13740 28-583) (assay: antigen assigned by the filing's classifying and identification method; details for this clone not given).
T1 construct: Native protein on cancer cell lines; also called CD166 antigen; CD166
T1 sequence: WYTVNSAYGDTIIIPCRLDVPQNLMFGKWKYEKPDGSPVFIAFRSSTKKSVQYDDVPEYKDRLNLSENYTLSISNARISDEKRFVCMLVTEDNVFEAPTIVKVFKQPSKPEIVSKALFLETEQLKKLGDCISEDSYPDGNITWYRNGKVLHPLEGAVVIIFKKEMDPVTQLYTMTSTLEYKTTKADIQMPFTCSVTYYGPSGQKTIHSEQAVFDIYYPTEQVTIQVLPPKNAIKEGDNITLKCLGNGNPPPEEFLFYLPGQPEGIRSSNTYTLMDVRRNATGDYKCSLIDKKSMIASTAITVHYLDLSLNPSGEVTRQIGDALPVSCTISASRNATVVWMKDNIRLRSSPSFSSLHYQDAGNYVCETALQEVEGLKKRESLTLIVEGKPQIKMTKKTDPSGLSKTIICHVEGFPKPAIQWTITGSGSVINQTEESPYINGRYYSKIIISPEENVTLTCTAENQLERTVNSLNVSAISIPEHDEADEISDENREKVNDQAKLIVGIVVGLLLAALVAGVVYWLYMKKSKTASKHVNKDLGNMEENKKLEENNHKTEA

| Binder | binding result |
| --- | --- |
| B1 | binds |
| B2 | binds |
| B3 | binds |
| B4 | binds |
| B5 | binds |
| B6 | binds |
| B7 | binds |

These binders were tested against T2, HER2 (Homo sapiens (Human), UniProt P04626 23-1255) in the same assay as above.
T2 construct: Native protein on cancer cell lines; also called erbB-2; ErbB2

| Binder | binding result |
| --- | --- |
| B8 | binds |
| B9 | binds |
| B10 | binds |
| B11 | binds |
| B12 | binds |
| B13 | binds |
| B14 | binds |
| B15 | binds |
| B16 | binds |
| B17 | binds |
| B18 | binds |
| B19 | binds |
| B20 | binds |
| B21 | binds |
| B22 | binds |
